# Experiments:
# B8MKR3 = target: T1, B8MKR3 (Talaromyces stipitatus, UniProt B8MKR3); assay: cytochrome c reduction at […] nm; assay type: biochemical; conditions: 2 mM substrate; 0.1 mM cytochrome c; 20 mM HEPES pH 7.4
# T1 construct: gene TSTA_043820
# T1 sequence (B8MKR3 1-496): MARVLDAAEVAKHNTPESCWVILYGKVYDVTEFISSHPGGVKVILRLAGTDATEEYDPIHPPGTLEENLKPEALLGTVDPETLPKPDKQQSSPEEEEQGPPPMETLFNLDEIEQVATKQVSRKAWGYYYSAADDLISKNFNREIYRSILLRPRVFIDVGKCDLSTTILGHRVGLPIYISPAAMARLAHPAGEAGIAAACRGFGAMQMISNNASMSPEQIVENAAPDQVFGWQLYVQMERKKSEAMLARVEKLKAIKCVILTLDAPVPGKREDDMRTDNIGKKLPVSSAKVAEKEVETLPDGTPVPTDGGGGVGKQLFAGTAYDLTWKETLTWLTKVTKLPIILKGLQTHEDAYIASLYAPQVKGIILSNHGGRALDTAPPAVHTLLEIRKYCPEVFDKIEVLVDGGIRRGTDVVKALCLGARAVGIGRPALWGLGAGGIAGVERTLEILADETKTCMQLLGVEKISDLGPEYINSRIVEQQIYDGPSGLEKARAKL
# E6SCX5 = target: T2, E6SCX5 (Intrasporangium calvum, UniProt E6SCX5); assay: Amplex Red peroxide assay; assay type: biochemical; conditions: 1 mM DL-mandelate; 20 mM HEPES pH 7.4; HRP; lysate
# T2 construct: gene Intca_2052; full-length synthetic gene in pET21a, C-terminal linker and deca-His tag, soluble E. coli BL21(DE3) lysate
# T2 sequence (E6SCX5 1-415): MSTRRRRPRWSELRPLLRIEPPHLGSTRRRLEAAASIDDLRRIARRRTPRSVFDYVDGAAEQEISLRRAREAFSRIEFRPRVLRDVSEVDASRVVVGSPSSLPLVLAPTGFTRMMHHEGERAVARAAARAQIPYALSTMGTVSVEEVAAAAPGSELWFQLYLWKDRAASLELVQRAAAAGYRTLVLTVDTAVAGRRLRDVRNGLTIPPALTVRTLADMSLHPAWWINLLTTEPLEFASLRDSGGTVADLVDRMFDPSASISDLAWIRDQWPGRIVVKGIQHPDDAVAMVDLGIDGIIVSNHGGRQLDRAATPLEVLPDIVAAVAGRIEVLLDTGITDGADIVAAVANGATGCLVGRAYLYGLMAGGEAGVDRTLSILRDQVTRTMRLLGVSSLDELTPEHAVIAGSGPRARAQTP
# C9Y9E7 = target: T3, C9Y9E7 (Curvibacter putative symbiont of Hydra magnipapillata, UniProt C9Y9E7); assay: Amplex Red peroxide assay; assay type: biochemical; conditions: […] DL-mandelate; […] HEPES pH […]; HRP; lysate
# T3 construct: gene lldD; full-length synthetic gene in pET21a, C-terminal linker and deca-His tag, soluble E. coli BL21(DE3) lysate
# T3 sequence (C9Y9E7 1-381): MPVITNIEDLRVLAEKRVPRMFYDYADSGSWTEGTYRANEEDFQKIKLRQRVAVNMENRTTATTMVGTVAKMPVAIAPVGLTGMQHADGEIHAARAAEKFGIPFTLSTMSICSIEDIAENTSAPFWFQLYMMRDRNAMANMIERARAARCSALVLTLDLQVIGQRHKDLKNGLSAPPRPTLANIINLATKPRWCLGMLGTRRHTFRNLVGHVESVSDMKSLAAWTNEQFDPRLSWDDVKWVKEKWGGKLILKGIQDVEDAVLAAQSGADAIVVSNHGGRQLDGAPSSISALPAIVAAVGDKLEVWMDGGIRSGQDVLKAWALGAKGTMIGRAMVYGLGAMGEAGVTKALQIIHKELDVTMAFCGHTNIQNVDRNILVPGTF
# W6W585 = target: T4, W6W585 (Rhizobium sp. CF080, UniProt W6W585); assay: Amplex Red peroxide assay; assay type: biochemical; conditions: […] DL-mandelate; […] HEPES pH […]; HRP; lysate
# T4 construct: gene PMI07_004712; full-length synthetic gene in pET21a, C-terminal linker and deca-His tag, soluble E. coli BL21(DE3) lysate
# T4 sequence (W6W585 1-409): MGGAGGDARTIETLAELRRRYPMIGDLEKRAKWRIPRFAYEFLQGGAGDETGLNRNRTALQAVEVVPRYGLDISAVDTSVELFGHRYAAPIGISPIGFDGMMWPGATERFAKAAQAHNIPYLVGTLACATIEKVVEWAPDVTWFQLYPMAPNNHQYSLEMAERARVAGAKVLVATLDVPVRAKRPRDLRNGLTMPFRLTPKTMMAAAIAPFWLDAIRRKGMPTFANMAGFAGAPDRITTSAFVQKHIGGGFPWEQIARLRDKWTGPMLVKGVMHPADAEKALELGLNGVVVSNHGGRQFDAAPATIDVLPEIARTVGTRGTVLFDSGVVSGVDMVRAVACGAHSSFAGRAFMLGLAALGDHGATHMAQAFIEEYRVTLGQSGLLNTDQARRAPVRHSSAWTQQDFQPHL
# purified protein [1] = substrate: C[C@@H](O)C(=O)O; assay: purified protein; conditions: DCPIP + PMS as electron acceptor, 20 mM HEPES pH 7.4, 25 °C
# purified protein [2] = substrate: O=P(O)(O)OC[C@H](O)CO; assay: purified protein; assay type: biochemical, Caloramator mitchellensis; conditions: DCPIP + PMS as electron acceptor, 20 mM HEPES pH 7.4, 25 °C
molecule,measurement,setting,value
C[C@H](O)C(=O)O [L-lactate],cytochrome c reduction at 550 nm,B8MKR3,the B8MKR3 protein displayed cytochrome b2 L-lactate dehydrogenase activity
O=C(O)C(O)c1ccccc1 (racemic) [DL-mandelate],Amplex Red peroxide assay,E6SCX5,the four proteins display a high activity with mandelate
same,Amplex Red peroxide assay,C9Y9E7,the four proteins display a high activity with mandelate
same,Amplex Red peroxide assay,W6W585,the four proteins display a high activity with mandelate
D4MUV9 (Anaerostipes hadrus) (protein) MSEYQYNKVTPEMIEKFKEIAPKRVLVGDEINEDFTHDEMAIYGKARPEVLVEATSTEEVAAVVKLCNENKIPVTPSGARTGLVGGAVSIGGGVMISLTKMNKILGYDKENFVVKIQSGVLLNDLAQDAEKQGLLYPPDPGEKFATVGGNVATNAGGMRAVKYGCTRDYVRAMTVVLPTGEIVKLGATVSKTSSGYSLLNLMIGSEGTLGIITELTLKVIPAPKSVISLIIPYENLEDCIATVPQFFMHHLAPQALEFMEKEVVMDTEKFLGKQVYPKELEGTEIGAYLLATFDGNSEEQLEDIIEQASEVVLEAGAIDVLVADTPALKKDAWAVRGALLEAIEADTVLLDECDVVVPTNKIAEFLTYTKSLEAEADFRVKSFGHAGDGNLHIYTCSNDMEEGEFKKQVAVFMDKVYAKATEFGGMISGEHGIGHGKMDYLAESLGPVQMRIMEGVKEVFDPNMILNPGKICYKL,Km,purified protein [1],0.40 +/- 0.04 x 10^-3 M
same,kcat,purified protein [1],5.18 s⁻¹
same,kcat/Km,purified protein [1],13100 M⁻¹ s⁻¹
A0A0R3K2G2 (Caloramator mitchellensis) (protein) MFDVAIIGAGVIGCSIARELSKYNLNVALIEKENDVGNVTTKANSAIIHAGYDAKPGTLKGKLNAKGNLMFDELCRELEVPFKRVGSLVLAFDDDEMKTLGKLYEQGIQNGVPELYILSKEKVLEMDPNISDNIKGALYAKTGGIIGPWEFTIALAENAVENGVNIFLSNEVVDIEKKDFGYRIITNKDTYDTKYVVNCAGLYADKINNMVSNNKMEIIPRRGQYYLLDKTVGNLVKYVIFQCPSKLGKGVLVTPTVHGNLLIGPDAEDLIDKTALNTTSEGLNFIVEVARRSVKTLPLNMAITNFAGLRARTERDDFIIEEAVDAKGFINVAGIESPGLSSAPAISLYVIDILKNIAKKIEKKENFNPYRRAIPKFIELSEDEKNELVKKDKRFGKIICRCESITEGEIVSAIHRNVGARTVDAVKRRVRAGMGRCQGGFCSPRVIEILARELGVEMTEIEKDHEGSYILTGPTKSEVQ,Km,purified protein [2],1.97 +/- 0.23 x 10^-3 M
same,kcat,purified protein [2],0.242 s⁻¹
same,kcat/Km,purified protein [2],123 M⁻¹ s⁻¹
